The nature of data set [1]: Evaluation of degree of hydrophobicity by hydrophobic column chromatography (HIC-HPLC). Format: physicochemical. Particulars: for Retention time: ADC mimics from thiol group-introduced trastuzumab, DAR 2. How it is done:
According to a previous report (Anal. Chem., 2019, 91, 20, 12724-12732, which is incorporated herein by reference in tis entirety), HIC-HPLC analysis was performed. Measurement was performed using the following conditions. Degrees of hydrophobicity of an ADC can be evaluated by retention time of the ADC in HIC chromatogram.
Measurement system: Chromaster (registered trademark) (manufactured by Hitachi, Ltd.)
Column: Tosoh Biobuthyl NPR 2.5 μm 4.6×35 mm column manufactured by Tosoh Bio-Sciences Inc.
Gradient: linear gradient of eluent A/B
Eluent B: 25 mM Na2HPO4/NaH2PO4 (pH 6.0, 25 v/v % isopropanol added)
For DAR analysis of the ADC mimics synthesized in Example 7 and Comparative Example 2, HIC-HPLC analysis was performed according to a previous report (Anal. Chem., 2019, 91, 20, 12724-12732, which is incorporated herein by reference in its entirety). Measurement was performed using the following conditions.
HIC-HPLC analysis was performed using the condition of Example 8. Measurement was performed using the following conditions. A degree of hydrophobicity of ADC mimic can be evaluated by retention time of ADC in HIC chromatogram.
HIC-HPLC analysis was performed using the condition of Example 8.
Subsequently, hydrophobicity of an ADC was evaluated using HIC-HPLC. Measurement was performed according to Example 9. A degree of hydrophobicity of an ADC can be evaluated by retention time of ADC in HIC chromatogram.
According to a previous report (Anal. Chem., 2019, 91, 20, 12724-12732, which is incorporated herein by reference in its entirety), HIC-HPLC analysis was performed. Measurement was performed using the following conditions. Degrees of hydrophobicity of an ADC can be evaluated by retention time of the ADC in HIC chromatogram.

A short description of data set [2]: Evaluation of aggregation ratio by size exclusion chromatography (SEC-HPLC). Format: physicochemical. How it is done: SEC-HPLC analysis was performed according to a previous report (Chemistry Select, 2020, 5, 8435-8439). Measurement was performed using the following conditions.
Measurement system: 1260 HPLC system (manufactured by Agilent)
Column: AdvanceBio SEC 300 Å, 2.7 μm, 4.6 mm×150 mm, manufactured by Agilent Technologies
Eluent: 100 mM sodium dihydrogen phosphate/sodium hydrogen phosphate, aqueous solution of 250 mM sodium chloride (pH 6.8), 10% v/v isopropanol
SEC-HPLC analysis was performed according to Example 10.
In general terms: Size exclusion chromatography separates by hydrodynamic size, large species first.

`CCCCCNC(=O)CCSC1CC(=O)N(CCCCCNC(=O)C(OC(=O)N(C)CC(=O)NCc2ccc3ccc4cccc5ccc2c3c45)c2ccc(NC(=O)[C@H](CCCNC(N)=O)NC(=O)[C@@H](NC(=O)OCc3ccccc3)C(C)C)cc2)C1=O` (stereo partly drawn) [ADC mimic 5]: the Retention time turned out to be 13.6 min in data set [1] (Table 2, HIC-HPLC) and 13.6 min in data set [1] (Table 20).

`CSC1CC(=O)N(CCCCCNC(=O)C(OC(=O)N(C)CC(=O)NCc2ccc3ccc4cccc5ccc2c3c45)c2ccc(NC(=O)[C@H](CCCNC(N)=O)NC(=O)[C@@H](NC(=O)[C@H](CCC(=O)O)NC(C)=O)C(C)C)cc2)C1=O` (stereo partly drawn) [ADC mimic 12]: the “degree of hydrophilicity judged from retention time in HIC chromatogram (in words)” value (“degree of hydrophilicity judged” for short) in data set [1] was “more hydrophilic”.

On to `CSC1CC(=O)N(CCCCCNC(=O)C(OC(=O)N(C)CC(=O)NCc2ccc3ccc4cccc5ccc2c3c45)c2ccc(NC(=O)[C@H](CCCNC(N)=O)NC(=O)[C@@H](NC(=O)[C@H](CCC(=O)O)NC(=O)[C@H](CCC(=O)O)NC(C)=O)C(C)C)cc2)C1=O` (stereo partly drawn) [ADC mimic 13], for which, in data set [1], the “degree of hydrophilicity judged” value was “more hydrophilic”. In data set [2], the “tendency of aggregation ratio by SEC-HPLC (in words)” value is recorded as “low aggregation ratios”.

Take `CSC1CC(=O)N(CCCCCNC(=O)C(OC(=O)N(C)CC(=O)NCc2ccc3ccc4cccc5ccc2c3c45)c2ccc(NC(=O)[C@H](C)NC(=O)[C@@H](NC(=O)[C@H](CCC(=O)O)NC(C)=O)C(C)C)cc2)C1=O` (stereo partly drawn) [ADC mimic 14]: the “degree of hydrophilicity judged” value in data set [1] was “more hydrophilic”.

Source of the values: US20240285788A1, “CONJUGATE OF ANTIBODY AND FUNCTIONAL SUBSTANCE OR SALT THEREOF, AND ANTIBODY DERIVATIVE AND COMPOUND USED IN PRODUCTION OF THE SAME OR SALTS THEREOF” (Ajinomoto Co., Inc., priority 2021, published 2024).
